Experimental data reported in paper PMC6640702, “IgG Charge: Practical and Biological Implications” (Antibodies, 2019).

What was measured:
[1] = target: Fc fragment of human IgG4 (IdeS-cleaved; identical for IgG4 and IgG4Pro) (human); test: AUC; sedimentation velocity, absorbance 280 nm, 20 °C, 40,000 rpm, three concentrations in 1:3 dilutions from 0.5 mg/mL (0.5, 0.167, 0.056 mg/mL); Figure 2 in 10 mM sodium acetate, 50 mM NaCl, pH 5.0; oligomer told from sw against ~50 kDa
[2] = target: the molecule itself; test: as above

| stoichiometry N [1] | Molecule | stoichiometry N [2] |
| --- | --- | --- |
| 2 | Fc fragment of human IgG4 (IdeS-cleaved; identical for IgG4 and IgG4Pro) (domain or fragment) |  |
|  | Fc fragment of human IgG2 (IdeS-cleaved) (domain or fragment, asparagine (N)-linked glycoforms G0F, G1F, G2F (told of the intact IgGs)) GPSVFLFPPKPKDTLMISRTPEVTCVVVDVSHEDPEVQFNWYVDGVEVHNAKTKPREEQFNSTFRVVSVLTVVHQDWLNGKEYKCKVSNKGLPAPIEKTISKTKGQPREPQVYTLPPSREEMTKNQVSLTCLVKGFYPSDIAVEWESNGQPENNYKTTPPMLDSDGSFFLYSKLTVDKSRWQQGNVFSCSVMHEALHNHYTQKSLSLSPGK | 2 |
